Assay results taken from US20230304012A1.

Tests used:
[1] = target: full length MuSK (wild type mouse, on primary myotubes) (mouse) (UniProt Q61006); assay: cell-based or functional assay
[2] = target: ΔIg3-MuSK (mouse, on primary myotubes from ΔIg3-MuSK mice) (mouse) (UniProt Q61006); assay: cell-based or functional assay

With BMP4 (ligand) the Wnt11 transcription (qRT-PCR), fold increase after 25 ng/mL BMP4 for 2 hours in primary myotubes [1] was 5.8 fold and the Wnt11 transcription (qRT-PCR), fold increase after 25 ng/mL BMP4 for 2 hours in primary myotubes [2] was 2.6 fold.
